# In article PMC6451097, “YB-1, an abundant core mRNA-binding protein, has the capacity to form an RNA nucleoprotein filament: a structural analysis”:
# Assays:
# YB-1C = YB-1C (Homo sapiens, UniProt P67809 1-180); test: NMR HSQC; 1:1; monomer; EMSA: 20 mM Hepes pH 7.5, 40 mM KCl, room temp, 5 min (SSB: 20 mM Tris-HCl pH 7.6, 300 mM KCl, 37 C, 15 min); NMR: 100 uM protein, 1:1 oligo, 298 K (RNA 298 and 303 K), NMR buffer not in material; conditions: protein: recombinant; tags: His-tag (pET22b); untagged version also used
# YB-1C, sequence (P67809 1-180): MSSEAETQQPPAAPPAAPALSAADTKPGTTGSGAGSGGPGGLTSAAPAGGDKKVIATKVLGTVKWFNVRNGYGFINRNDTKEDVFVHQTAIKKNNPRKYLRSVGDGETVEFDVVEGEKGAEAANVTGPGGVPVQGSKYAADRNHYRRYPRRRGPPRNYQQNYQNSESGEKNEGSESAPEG
# YB-1 CSD = YB-1 CSD (Homo sapiens, UniProt P67809 52-129); test: NMR HSQC; 1:1; EMSA: 20 mM Hepes pH 7.5, 40 mM KCl, room temp, 5 min (SSB: 20 mM Tris-HCl pH 7.6, 300 mM KCl, 37 C, 15 min); NMR: 100 uM protein, 1:1 oligo, 298 K (RNA 298 and 303 K), NMR buffer not in material; conditions: protein: recombinant
# YB-1 CSD, sequence (P67809 52-129): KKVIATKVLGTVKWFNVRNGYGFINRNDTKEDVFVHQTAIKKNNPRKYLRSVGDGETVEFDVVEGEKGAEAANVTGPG
binder,measurement,setting,value
CCCCCCCCCC (ssDNA) [dC10],binding result,YB-1C,binds
same,binding result,YB-1 CSD,binds
